Laboratory results taken from the supplement of paper PMC10567573.

B1: DCAF4 (parent)
chain: TTKCVRQYEGHVNEYAYLPLHVHE

Variants of: B1
Assay: protein stability index of a GFP-peptide fusion (GPS, HEK-293T) (PSI 1-6); higher = more stable
Details: c terminus: a fixed tail appended
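Note: lentivirally expressed fusions sorted by FACS into six bins by GFP to DsRed ratio, PSI derived from sequencing read proportions per bin multiplied by bin number.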

Variant | protein stability index
TTKCVRQYEQHVNEYAYLPLHVHE | 2.24
TTKCVRQYEHHVNEYAYLPLHVHE | 2.31
TTKCVRQYEEHVNEYAYLPLHVHE | 3.3
TTKCVRQYEKHVNEYAYLPLHVHE | 3.44
TTKCVRQYELHVNEYAYLPLHVHE | 2.11
TTKCVRQYERHVNEYAYLPLHVHE | 2.3
TTKCVRQYEIHVNEYAYLPLHVHE | 1.43
TTKCVRQYEVHVNEYAYLPLHVHE | 2.14
TTKCVRQYESHVNEYAYLPLHVHE | 2.69
TTKCVRQYEGHVSEYAYLPLHVHE | 2.78
TTKCVRQYEGHVWEYAYLPLHVHE | 1.87
TTKCVRQYEGHVPEYAYLPLHVHE | 3.12
TTKCVRQYEGHVHEYAYLPLHVHE | 2.5
TTKCVRQYEGHVAEYAYLPLHVHE | 2.64
TTKCVRQYEGHVREYAYLPLHVHE | 2.31
TTKCVRQYEGHVQEYAYLPLHVHE | 2.32
TTKCVRQYEGHVYEYAYLPLHVHE | 2.09
TTKCVRQYEGHVEEYAYLPLHVHE | 3.55
TTKCVRQYEGHVKEYAYLPLHVHE | 2.48
TTKCVRQYEGHVLEYAYLPLHVHE | 2.85
TTKCVRQYEGHVGEYAYLPLHVHE | 3.04
TTKCVRQYEGHVTEYAYLPLHVHE | 2.64
TTKCVRQYEGHVFEYAYLPLHVHE | 2.02
TTKCVRQYEGHVIEYAYLPLHVHE | 1.66

Variant | protein stability index
TTKCVRQYEGHVCEYAYLPLHVHE | 2.35
TTKCVRQYEGHVVEYAYLPLHVHE | 2.23
TTKCVRQYEGHVDEYAYLPLHVHE | 2.35
TTKCVRQYEGHVMEYAYLPLHVHE | 1.88
TTKCVRQYEGHYNEYAYLPLHVHE | 2.52
TTKCVRQYEGHWNEYAYLPLHVHE | 2.07
TTKCVRQYEGHNNEYAYLPLHVHE | 2.98
TTKCVRQYEGHMNEYAYLPLHVHE | 2.86
TTKCVRQYEGHHNEYAYLPLHVHE | 2.71
TTKCVRQYEGHPNEYAYLPLHVHE | 2.69
TTKCVRQYEGHLNEYAYLPLHVHE | 2.76
TTKCVRQYEGHANEYAYLPLHVHE | 3.03
TTKCVRQYEGHRNEYAYLPLHVHE | 2.6
TTKCVRQYEGHENEYAYLPLHVHE | 3.35
TTKCVRQYEGHSNEYAYLPLHVHE | 2.78
TTKCVRQYEGHINEYAYLPLHVHE | 2.52
TTKCVRQYEGHGNEYAYLPLHVHE | 3.13
TTKCVRQYEGHDNEYAYLPLHVHE | 3.19
TTKCVRQYEGHQNEYAYLPLHVHE | 2.58
TTKCVRQYEGHFNEYAYLPLHVHE | 2.11
TTKCVRQYEGHTNEYAYLPLHVHE | 2.85
TTKCVRQYEGHCNEYAYLPLHVHE | 2.48
TTKCVRQYEGHKNEYAYLPLHVHE | 3.33
